Here are results for one substance from PMC3466257.

In this assay the target is immobilized fibrin (UniProt P02679). Briefly: cell-free flow-based adhesion assay of protein-coated microspheres; 10-µm polystyrene microspheres coated with immunopurified CD44 or human IgG (2×10^6/ml in DPBS, 0.1% BSA) perfused for 5 min at 37°C over immobilized fibrin in a parallel plate flow chamber, 0.25 to 0.5 dyn/cm^2; interacting microspheres counted by phase-contrast videomicroscopy.

In turn, “CD44s immunopurified from PDGF-treated HL60 human myeloid cells (from UniProt P16070-12 21-361) (receptor)” showed a reduction of binding relative to CD44s from untreated HL60 cells of 30%.
